In publication PMC12126530, “A low-complexity linker as a driver of intra- and intermolecular interactions in DNAJB chaperones” (Nature Communications, 2025):
One block for each binder: values may come before it.

What was measured:
Details in all cases: both partners purified
[1] = molecular target: T1, Full-length Hsc70-T204A (ATPase deficient mutant) (human, UniProt P11142 1-646, T204A); assay: NMR 15N-CPMG relaxation dispersion with exchange-induced shifts; 15N-labelled JDP (DNAJB6 JD-GF 200 μM, DNAJB6 JD 350 μM, DNAJB1 300 μM) with unlabelled Hsc70-T204A at a molar ratio of 0.1, ATP-regenerating system, 20 mM HEPES pH 7.0, 50 mM KCl, 2.5 mM MgCl2, 25 °C, 600, 800 and 950 MHz; fit to a 2-state model; kex = kon app + koff
T1 construct: Hsc70, the constitutively expressed cytosolic form of human Hsp70, full length, with T204A; 5 mM ATP in fluorescence polarisation; also called hydrolysis deficient Hsc70 mutant T204A; source: pET-15b vector, expressed at 25 °C overnight, purified (StrepTactin, TEV cleavage, Superdex 200)

[2] = molecular target: T2, Full-length Hsc70-T204A (ATPase deficient mutant) (human, UniProt P11142 1-646, T204A); assay: NMR 15N-CPMG relaxation dispersion and exchange-induced shifts; 15N-labelled JDP observed, unlabelled Hsc70-T204A added to a molar ratio of 0.1 (DNAJB6 JD-GF 200 uM, DNAJB6 JD 350 uM, DNAJB1 300 uM); 25 °C; 20 mM HEPES pH 7.0, 50 mM KCl, 2.5 mM MgCl2; ATP-regenerating system with 2.5 mM ATP; fit to a two-state binding model
T2 construct: Hsc70, the constitutively expressed cytosolic form of human Hsp70; full length with the ATPase-deficient mutation T204A; source: pET-15b vector, expression at 25 °C overnight, purified (StrepTactin, TEV cleavage, Superdex 200)

[3] = molecular target: T2, Full-length Hsc70-T204A (ATPase …); assay: fluorescence polarisation; direct binding: Hsc70-T204A titrated into 300 nM fluorescein-labelled DNAJB6 JD; 25 °C; 20 mM HEPES pH 7.0, 50 mM KCl, 5 mM MgCl2, 5 mM ATP; four-point logistic fit, 1:1 model

B1: DNAJB1 JD-GF (domain or fragment)
chain: not shown
modifications: 15N-labelled; limits by convention: ends just before helix 5 (DNAJB6 helix 5 is 96-104, and DNAJB6 F91 aligns with DNAJB1 Y92, giving about 97-105); start as in PDB 6Z5N
- Kd [1]: ~300 µM

B3: DNAJB1 JD (domain or fragment)
chain: not shown
notes: DNAJB1, construct truncated immediately after the J-domain; also called DNAJB1 1-67; JD of DNAJB1; source: E. coli BL21(DE3), purified (HisTrap, TEV cleavage, C18 reverse phase HPLC); not shown: His-tag, N-terminal, cleaved
- Kd [2]: ~450 µM

B4: DNAJB1 JD-GF (domain or fragment)
chain: not shown
modifications: 15N-labelled; limits by convention: ends just before helix 5 (DNAJB6 helix 5 is 96-104, and DNAJB6 F91 aligns with DNAJB1 Y92, giving about 97-105); start as in PDB 6Z5N
- Kd [2]: 288 ± 13 µM
- koff [2]: 1700 ± 40 s⁻¹
- kon [2]: 5.91e+06 M⁻¹ s⁻¹

Continued, values first:

- Kd [2]: 3.4 ± 1.1 µM
- koff [2]: 2740 ± 51 s⁻¹
- kon [2]: 8e+08 M⁻¹ s⁻¹
B2: DNAJB6 JD (domain or fragment)
chain: not shown
notes: DNAJB6, construct truncated immediately after the J-domain; 15N-labelled for NMR; also called isolated JD of DNAJB6; DNAJB6 J-domain; source: E. coli BL21(DE3), purified (HisTrap, TEV cleavage, C18 reverse phase HPLC); not shown: His-tag, N-terminal, cleaved

- Kd [3]: 18 ± 6.5 µM
B5: Fluorescently labelled DNAJB6 JD (with an additional C-terminal GSSC sequence) (domain or fragment)
chain: not shown
modifications: Fluorescein-5-Maleimide on the C-terminal cysteine
notes: DNAJB6 J-domain construct; not shown: His-tag, N-terminal, cleaved
